B1: Phage-700 (peptide)
peptide: YCHGHLPQYMSKCM
B2: Phage-703 (peptide)
peptide: YCDGHSWEYLGKCL
B3: Phage-18 (peptide)
peptide: SCAAGASYAWPYCL
B4: Phage-9 (peptide)
peptide: ECHWSMWAVGHACF
B5: Phage-714 (peptide)
peptide: YCEGHLKEYMQKCL
B6: Phage-705 (peptide)
peptide: YCEGHAAEYLWKCL
B7: Phage-699 (peptide)
peptide: YCDGHSQEYMSKCL
B8: Phage-745 (peptide)
peptide: YCDGHAKVYIWKCL
B9: Phage-744 (peptide)
peptide: YCEGHAQEYMAKCL
B10: Phage-22 (peptide)
peptide: YCAGHTEEHYVKCM
B11: Phage-740 (peptide)
peptide: YCDGHSFHYMAKCL
B12: Phage-3 (peptide)
peptide: FMCLPQNPHPLCFK
B13: Phage-718 (peptide)
peptide: YCDGHLSVYMSKCL
B14: Phage-696 (peptide)
peptide: YCEGHSAEHMPKCL
B15: Phage-733 (peptide)
peptide: YCDGHAMEYMEKCL
B16: Phage-13 (peptide)
peptide: YCAGHAWQYINKCL
B17: Phage-742 (peptide)
peptide: YCDGHANAYIWKCL
B18: Phage-719 (peptide)
peptide: YCEGHLPQYMSKCL
B19: Phage-737 (peptide)
peptide: YCAGHAEEYMLKCL
B20: Phage-708 (peptide)
peptide: YCEGHAGVYMAKCL
B21: Phage-19 (peptide)
peptide: DCPWLSGFSRPLLC
B22: Phage-701 (peptide)
peptide: YCAGHLDIYLAKCL
B23: Phage-695 (peptide)
peptide: YCDGHSMMYMQKCL
B24: Phage-747 (peptide)
peptide: YCDGHAPIYMQKCL
B25: Phage-743 (peptide)
peptide: YCEGHIPMYMLKCM
B26: Phage-5 (peptide)
peptide: ACDTYFAGMINECF
B27: Phage-8 (peptide)
peptide: WCWDYREWVPMTCP
B28: Phage-14 (peptide)
peptide: WCWYYREWVPMTCP
B29: Phage-12 (peptide)
peptide: DCWWMFESYPGRCI
B30: Phage-707 (peptide)
peptide: YCEGHMPEYLAKCL
B31: Phage-7 (peptide)
peptide: WCWDYKLWVPTQCP
B32: Phage-748 (peptide)
peptide: YCEGHLWEYMKKCL
B33: Phage-15 (peptide)
peptide: YWYCSPSIVRCVLV
B34: Phage-713 (peptide)
peptide: YCEGHAEQYMEKCL
B35: Phage-21 (peptide)
peptide: YCAGHMPQYEVKCL
B36: Phage-20 (peptide)
peptide: YCAGMSTIQLWLKC
B37: Phage-735 (peptide)
peptide: YCEGHMGEYMLKCL
B38: Phage-6 (peptide)
peptide: GCQYPWAFDAMSCP
B39: Phage-702 (peptide)
peptide: YCAGHAPEYISKCL
B40: Phage-1 (peptide)
peptide: YWSCFQIPFTCFYF
B41: Phage-734 (peptide)
peptide: YCEGHLWEYLAKCL
B42: Phage-694 (peptide)
peptide: YCEGHSTEYIQKCL
B43: Phage-4 (peptide)
peptide: PDCQTILFKPWCVR
B44: Phage-16 (peptide)
peptide: PDCHTILFKPWCVR
B45: Phage-710 (peptide)
peptide: YCAGHSSEYIGKCL
B46: Phage-739 (peptide)
peptide: YCVGHLPEYMLECM
B47: Phage-2 (peptide)
peptide: WECLKYTEANACTY
B48: Phage-706 (peptide)
peptide: YCDGHRPEYMSKCL
B49: Phage-741 (peptide)
peptide: YCEGHSEMYMSKCL
B50: Phage-746 (peptide)
peptide: YCEGHIPAYMAKCL
B51: Phage-698 (peptide)
peptide: YCDGHEARYMQKCL
B52: Phage-697 (peptide)
peptide: YCVGHYPEYMEKCL
B53: Phage-17 (peptide)
peptide: WICDKSGSIMLCRA
B54: Phage-716 (peptide)
peptide: YCEGHRAEYMSKCL
B55: Phage-11 (peptide)
peptide: WCWDYKLWVPMTCP
B56: Phage-10 (peptide)
peptide: YCAGHSPINIGKCL
B57: Phage-717 (peptide)
peptide: YCDGHSWIYMVKCL

What was measured:
[1] = biological target: T1, Anti-CD28 Fab (SEQ ID NOs: 202, 203); assay: phage ELISA, Fab on plate;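 further: crude clonal phage supernatants added to wells pretreated with blocking buffer with or without CD28 antigen, then bound phage read out via HRP-linked anti-M13 antibody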
T1 construct: biotinylated and captured on neutravidin coated plates in the phage ELISA
T1 sequence (VH, as listed by the source, chain 1 of 2): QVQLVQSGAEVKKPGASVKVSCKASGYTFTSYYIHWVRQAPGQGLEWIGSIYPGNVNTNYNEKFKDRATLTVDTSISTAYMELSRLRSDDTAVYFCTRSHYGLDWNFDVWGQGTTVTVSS
T1 sequence (VL, as listed by the source, chain 2 of 2): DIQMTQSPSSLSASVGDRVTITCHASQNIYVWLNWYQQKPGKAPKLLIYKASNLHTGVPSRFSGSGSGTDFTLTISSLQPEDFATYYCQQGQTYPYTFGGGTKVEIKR
Method: After panning, phage infected bacteria were plated out and colonies picked into 96 well blocks. Clonal phage was then amplified and separated from bacterial cells via centrifugation.
Clonal phage were harvested as crude supernatants and screened via standard ELISAs. […] Prior to the addition of clonal phage, wells were incubated with blocking buffer and CD28 antigen or blocking buffer alone. Without washing or aspirating, clonal phage supernatants were then added to the wells and incubated for a short time. Wells were then washed followed by detection of bound phage using a horse radish conjugated anti-M13 antibody. Clonal phage of interest were then sent for sequence analysis.

[2] = biological target: T1, Anti-CD28 Fab (SEQ ID NOs: 202, 203); assay: phage ELISA, Fab on plate, CD28 antigen as competitor
[3] = biological target: Anti-CD28 Fab (SEQ ID NOs: 202, 203); assay: phage binding ELISA on captured Fab;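 further: clonal phage supernatants added briefly to wells pre-incubated with CD28 antigen or with blocking buffer only, then washed, bound phage read by ELISA using HRP-coupled anti-M13 antibody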
Target sequence in this assay (VH, as listed by the source, chain 1 of 2): as the sequence (VH, as listed by the source, chain 1 of 2) above
Target sequence in this assay (VL, as listed by the source, chain 2 of 2): as the sequence (VL, as listed by the source, chain 2 of 2) above
Method: Clonal phage were harvested as crude supernatants and screened via standard ELISAs. […] Prior to the addition of clonal phage, wells were incubated with blocking buffer and CD28 antigen or blocking buffer alone. Without washing or aspirating, clonal phage supernatants were then added to the wells and incubated for a short time. Wells were then washed followed by detection of bound phage using a horse radish conjugated anti-M13 antibody.

Row | Binder | Anti-CD28 Fab (SEQ ID NOs: 202, 203) signal [1] | Anti-CD28 Fab signal in the presence of CD28 [2] | Anti-CD28 Fab signal [3]
1 | B1 | 1.21 | 0.06 | –
2 | B2 | 1.2 | 0.05 | –
3 | B3 | – | – | 1.49
4 | B4 | – | – | 1.77
5 | B5 | 1.17 | 0.07 | –
6 | B6 | 1.18 | 0.09 | –
7 | B7 | 1.21 | 0.06 | –
8 | B8 | 1.06 | 0.08 | –
9 | B9 | 1.06 | 0.08 | –
10 | B10 | – | – | 0.62
11 | B11 | 1.08 | 0.06 | –
12 | B12 | – | – | 0.84
13 | B13 | 1.15 | 0.07 | –
14 | B14 | 1.23 | 0.09 | –
15 | B15 | 1.11 | 0.08 | –
16 | B16 | – | – | 0.64
17 | B17 | 1.07 | 0.09 | –
18 | B18 | 1.15 | 0.09 | –
19 | B19 | 1.09 | 0.07 | –

Row | Binder | Anti-CD28 Fab (SEQ ID NOs: 202, 203) signal [1] | Anti-CD28 Fab signal in the presence of CD28 [2] | Anti-CD28 Fab signal [3]
20 | B20 | 1.17 | 0.05 | –
21 | B21 | – | – | 1.27
22 | B22 | 1.21 | 0.07 | –
23 | B23 | 1.23 | 0.06 | –
24 | B24 | 1.06 | 0.06 | –
25 | B25 | 1.06 | 0.09 | –
26 | B26 | – | – | 0.92
27 | B27 | – | – | 2.3
28 | B28 | – | – | 1.85
29 | B29 | – | – | 1.65
30 | B30 | 1.18 | 0.07 | –
31 | B31 | – | – | 2.27
32 | B32 | 1.06 | 0.07 | –
33 | B33 | – | – | 1.51
34 | B34 | 1.17 | 0.08 | –
35 | B35 | – | – | 0.22
36 | B36 | – | – | 2.16
37 | B37 | 1.1 | 0.06 | –
38 | B38 | – | – | 2.38

Row | Binder | Anti-CD28 Fab (SEQ ID NOs: 202, 203) signal [1] | Anti-CD28 Fab signal in the presence of CD28 [2] | Anti-CD28 Fab signal [3]
39 | B39 | 1.21 | 0.07 | –
40 | B40 | – | – | 1.44
41 | B41 | 1.1 | 0.05 | –
42 | B42 | 1.23 | 0.09 | –
43 | B43 | – | – | 2.09
44 | B44 | – | – | 1
45 | B45 | 1.17 | 0.06 | –
46 | B46 | 1.08 | 0.07 | –
47 | B47 | – | – | 1.55
48 | B48 | 1.18 | 0.07 | –
49 | B49 | 1.07 | 0.09 | –
50 | B50 | 1.06 | 0.08 | –
51 | B51 | 1.21 | 0.07 | –
52 | B52 | 1.22 | 0.07 | –
53 | B53 | – | – | 0.91
54 | B54 | 1.16 | 0.09 | –
55 | B55 | – | – | 2.51
56 | B56 | – | – | 1.49
57 | B57 | 1.16 | 0.06 | –

— patent US20260274955A1 (JANUX THERAPEUTICS, published 2026)
